In patent US20200138870A1, “RECREATION OF PANCREATIC NICHE ALLOWS FOR NOVEL METHODS FOR HUMAN, MATURE BETA DERIVATION FROM PLURIPOTENT STEM CELLS” (Baylor College of Medicine, priority 2016, published 2020):

System: JNK
Assay: Western blot for phosphorylated JNK and total JNK
Format: cell-based, human
Conditions: short-term (12h) treatment, 500 ng/ml WNT5A
Experimental: ISL1-EGFP hESCs were differentiated into EPs and first balanced with basal media (DMEM with 1% BSA and NEAA) for 6h and then treated with 500 ng/ml WNT5A in basal media. After 12h, cell lysates were collected as imilion of EPs were pelleted, PBS washed and resuspended in 250 μl of lysis buffer (10 mM HEPES pH7.5, 10 mM MgCl2, 5 mM KCl, 0.1 mM EDTA pH8, 0.1% TritonX-100, 0.2 mM PMSF, 1 mM DTT, 1 tab of Complete Protease Inhibitor Cocktail (Roche)). Cell lysates were centrifuged 12,000 g at 4° C. for 15 min and their supernatants were collected. BCA assay were performed using Pierce BCA protein assay kit (Thermo) to determine protein concentration. For Western blot, […] of protein were denatured with 4x Laemmeli buffer (40% glycerol, 8% SDS, 240 mM Tris-HCl pH6.8, 5% β-mercaptoethanol, 12.5 mM EDTA, 0.04% bromophenol blue) at 95° C. 3 min and resolved in 8% SDS-PAGE. PVDF membranes (BioRad) were used for transfer and membrane were blocked with 5% BSA in Tris-buffered saline with 1% Tween 20 (TBST) for 1h before applying primary antibody. Membranes were washed thrice for 10 min and anti-rabbit IgG-HRP (GE Life Science) were added for 3h at RT, followed by three washes. HyGLO™ Quick Spray Chemiluminescent HRP Antibody Detection Reagent (Denville Scientific Inc.) was used to detect antigen and the membrane was developed using CL-XPosure Film (Thermo Scientific). […]

B1: WNT5A: secreted growth factor from the human pancreatic niche (R&D), used at 100 or 500 ng/ml (protein)
chain: IIGAQPLCSQLAGLSQGQKKLCHLYQDHMQYIGEGAKTGIKECQYQFRHRRWNCSTVDNTSVFGRVMQIGSRETAFTYAVSAAGVVNAMSRACREGELSTCGCSRAARPKDLPRDWLWGGCGDNIDYGYRFAKEFVDARERERIHAKGSYESARILMNLHNNEAGRRTVYNLADVACKCHGVSGSCSLKTCWLQLADFRKVGDALKEKYDSAAAMRLNSRGKLVQVNSRFNSPTTQDLVYIDPSPDYCVRNESTGSLGTQGRLCNKTSEGMDGCELMCCGRGYDQFKTVQTERCHCKFHWCCYVKCKKCTEIVDQFVCK
JNK expression and phosphorylation (in words): increased
